The values that follow come from US20120141382, “APTAMER MODULATORS OF COMPLEMENT PROTEIN C3 AND BIOLOGICALLY ACTIVE PROTEOLYTIC PRODUCTS THEREOF” (Research Foundation of State University of New York at …, published 2012).

Data set [1] addresses T1, Complement C3b (Homo sapiens, UniProt P01024;P01024 P01024:23-667,P01024:749-1663). The data set can be described thus: filter; 20 mM Tris-HCl pH 7.6, 150 mM NaCl, 10 mM MgCl2; minimized version may have been used. Particulars: tags: Quidel; label: 32P-CTP uniform. The procedure:
(§1) Initially, RNA was heated to 65° C. for 10 minutes then switched to 37° C. for an additional 10 minutes before the addition of protein. The reactions were allowed to equilibrate for 15-20 minutes at ambient temperature before being subjected to Electrophoretic Mobility Shift Assay (“EMSA”) or filter binding.
(§2) For filter binding, the above-mentioned reaction mixture was immobilized on nitrocellulose (Millipore) using a manifold (Millipore) or a Bio-Dot SF (slot format) Microfiltration System (Bio-Rad, Hercules, Calif.). The nitrocellulose membrane was first soaked in binding buffer containing 20 mM Tris-Cl (pH 7.6), 150 mM NaCl, 10 mM MgCl₂. Nitrocellulose and two pieces of 3M Whatmann filter paper (3M) were assembled in the manifold as per company recommendations. Each well was washed with 1 ml of binding buffer. Samples were loaded in the wells and vacuum was applied to bind the complex, then each well was washed with 2 ml of binding buffer. The nitrocellulose membrane was then air dried and exposed to a phosphor screen (GE Healthcare) for 1 hour. The image was scanned using a Typhoon imager and ImageQuant software and the data was analyzed.

Data set [2] deals with T2, Complement iC3b (Homo sapiens, UniProt P01024;P01024;P01024 P01024:23-667,P01024:749-1303,P01024:1321-1663). The data set is described as above. Particulars: tags: Calbiochem; label: 32P-CTP uniform. The protocol:
as §1, §2

Data set [3] concerns the target T3, Complement C3 (Homo sapiens, UniProt P01024;P01024 P01024:23-667,P01024:672-1663). The data set is described as above. The conditions noted are these: tags: Calbiochem; label: 32P-CTP uniform. The protocol: as §1, §2
Data set [4] concerns the target T2, Complement iC3b. The data set can be described thus: filter; no binding by filter assay and EMSA. The conditions noted are these: tags: Calbiochem; label: 32P-CTP uniform. The procedure: as §1, §2
On the technique in general: In EMSA bound probe runs differently from free probe, usually more slowly.

The target of data set [5] is T1, Complement C3b. The data set can be described thus: filter; 20 mM Tris-HCl pH 7.6, 150 mM NaCl, 10 mM MgCl2. Particulars: tags: Quidel; label: 32P-CTP uniform. The protocol:
as §1, §2

The target in data set [6] is T3, Complement C3. The experiment in a line: filter; 20 mM Tris-HCl pH 7.6, 150 mM NaCl, 10 mM MgCl2; does not compete with AptC3-1. The conditions noted are these: tags: Calbiochem; label: 32P-CTP uniform. The procedure:
as §1, §2

Data set [7] addresses T1, Complement C3b. The data set can be described thus: EMSA; retarded band. The conditions noted are these: tags: Quidel; label: 32P-CTP uniform; hairpin with apical loop and internal loop.
The target in data set [8] is T2, Complement iC3b. The data set can be described thus: EMSA; retarded band. Particulars: tags: Calbiochem; label: 32P-CTP uniform; hairpin with apical loop and internal loop.
Data set [9] has as its target T3, Complement C3. The data set can be described thus: EMSA; retarded band; 2.5 mM MgCl2 gel, 4 C. Particulars: tags: Calbiochem; label: 32P-CTP uniform; hairpin with apical loop and internal loop.

Usually Kd stands for the equilibrium constant for the complex coming apart. A high value points to lower affinity.

T2 sequence (P01024 23-667, chain 1 of 3): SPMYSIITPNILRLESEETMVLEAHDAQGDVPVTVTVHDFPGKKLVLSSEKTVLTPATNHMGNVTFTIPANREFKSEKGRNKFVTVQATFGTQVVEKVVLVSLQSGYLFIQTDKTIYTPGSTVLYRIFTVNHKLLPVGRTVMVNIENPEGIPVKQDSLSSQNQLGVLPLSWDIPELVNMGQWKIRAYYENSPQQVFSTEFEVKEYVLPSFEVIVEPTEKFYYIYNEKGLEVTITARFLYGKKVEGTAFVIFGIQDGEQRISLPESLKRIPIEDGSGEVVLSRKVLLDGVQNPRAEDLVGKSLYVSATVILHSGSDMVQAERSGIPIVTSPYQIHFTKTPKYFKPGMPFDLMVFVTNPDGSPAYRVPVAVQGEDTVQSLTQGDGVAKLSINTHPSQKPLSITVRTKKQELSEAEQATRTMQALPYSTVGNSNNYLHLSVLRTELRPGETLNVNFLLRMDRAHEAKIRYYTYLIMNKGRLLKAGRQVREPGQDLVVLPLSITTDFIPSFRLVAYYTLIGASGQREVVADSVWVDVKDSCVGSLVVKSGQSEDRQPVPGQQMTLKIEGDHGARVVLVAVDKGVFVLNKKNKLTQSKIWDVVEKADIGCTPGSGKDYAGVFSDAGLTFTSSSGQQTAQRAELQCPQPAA
T2 sequence (P01024 749-1303, chain 2 of 3): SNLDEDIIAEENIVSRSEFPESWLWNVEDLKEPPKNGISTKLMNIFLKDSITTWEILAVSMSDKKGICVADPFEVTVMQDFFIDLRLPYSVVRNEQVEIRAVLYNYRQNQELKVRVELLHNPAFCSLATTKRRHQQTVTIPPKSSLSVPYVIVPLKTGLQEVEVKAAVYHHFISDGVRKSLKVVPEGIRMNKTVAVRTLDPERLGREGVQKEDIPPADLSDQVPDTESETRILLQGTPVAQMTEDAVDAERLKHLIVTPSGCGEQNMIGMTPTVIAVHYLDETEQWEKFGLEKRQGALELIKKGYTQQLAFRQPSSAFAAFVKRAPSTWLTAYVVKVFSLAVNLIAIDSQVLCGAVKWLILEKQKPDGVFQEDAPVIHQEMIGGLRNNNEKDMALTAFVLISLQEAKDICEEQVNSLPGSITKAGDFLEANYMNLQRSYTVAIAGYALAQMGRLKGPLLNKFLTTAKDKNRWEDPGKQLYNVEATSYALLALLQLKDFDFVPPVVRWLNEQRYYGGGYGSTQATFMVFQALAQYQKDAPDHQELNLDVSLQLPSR
T2 sequence (P01024 1321-1663, chain 3 of 3): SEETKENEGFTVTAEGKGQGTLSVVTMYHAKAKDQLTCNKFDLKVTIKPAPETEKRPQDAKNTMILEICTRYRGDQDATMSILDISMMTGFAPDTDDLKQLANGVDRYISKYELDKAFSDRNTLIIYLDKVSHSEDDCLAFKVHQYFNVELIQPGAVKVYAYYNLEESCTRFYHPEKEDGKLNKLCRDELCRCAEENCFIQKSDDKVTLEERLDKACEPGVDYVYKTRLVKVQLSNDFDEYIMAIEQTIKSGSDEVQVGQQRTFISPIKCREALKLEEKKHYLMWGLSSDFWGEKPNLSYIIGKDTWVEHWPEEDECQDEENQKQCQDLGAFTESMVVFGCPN
T3 sequence (P01024 23-667, chain 1 of 2): as the sequence (P01024 23-667, chain 1 of 3) above
T3 sequence (P01024 672-1663, chain 2 of 2): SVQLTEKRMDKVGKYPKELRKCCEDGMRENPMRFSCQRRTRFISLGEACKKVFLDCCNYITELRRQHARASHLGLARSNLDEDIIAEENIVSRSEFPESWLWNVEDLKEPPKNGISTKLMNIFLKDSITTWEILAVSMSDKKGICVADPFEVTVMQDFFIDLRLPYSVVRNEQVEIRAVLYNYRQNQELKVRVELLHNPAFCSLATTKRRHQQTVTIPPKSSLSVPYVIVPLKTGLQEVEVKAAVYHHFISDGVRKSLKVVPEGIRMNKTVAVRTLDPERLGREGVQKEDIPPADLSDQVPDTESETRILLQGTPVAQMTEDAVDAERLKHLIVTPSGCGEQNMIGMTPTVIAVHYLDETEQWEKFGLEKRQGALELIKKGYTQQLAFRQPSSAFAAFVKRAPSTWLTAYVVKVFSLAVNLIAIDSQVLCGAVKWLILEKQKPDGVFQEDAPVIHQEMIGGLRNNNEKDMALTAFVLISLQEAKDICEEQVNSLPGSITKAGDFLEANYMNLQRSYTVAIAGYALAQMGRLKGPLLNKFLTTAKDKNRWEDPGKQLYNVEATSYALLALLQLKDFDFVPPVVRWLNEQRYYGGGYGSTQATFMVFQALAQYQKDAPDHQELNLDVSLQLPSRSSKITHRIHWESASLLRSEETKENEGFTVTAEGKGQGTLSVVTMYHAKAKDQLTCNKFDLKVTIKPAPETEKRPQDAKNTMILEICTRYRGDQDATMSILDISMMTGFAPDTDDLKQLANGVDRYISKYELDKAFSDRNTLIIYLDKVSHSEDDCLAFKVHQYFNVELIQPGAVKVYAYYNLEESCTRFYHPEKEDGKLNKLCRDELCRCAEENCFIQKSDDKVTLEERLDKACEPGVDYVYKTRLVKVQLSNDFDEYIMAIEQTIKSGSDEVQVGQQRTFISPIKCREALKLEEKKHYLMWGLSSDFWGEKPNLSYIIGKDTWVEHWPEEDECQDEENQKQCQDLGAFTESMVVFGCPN
T1 sequence (P01024 23-667, chain 1 of 2): as the sequence (P01024 23-667, chain 1 of 3) above
T1 sequence (P01024 749-1663, chain 2 of 2): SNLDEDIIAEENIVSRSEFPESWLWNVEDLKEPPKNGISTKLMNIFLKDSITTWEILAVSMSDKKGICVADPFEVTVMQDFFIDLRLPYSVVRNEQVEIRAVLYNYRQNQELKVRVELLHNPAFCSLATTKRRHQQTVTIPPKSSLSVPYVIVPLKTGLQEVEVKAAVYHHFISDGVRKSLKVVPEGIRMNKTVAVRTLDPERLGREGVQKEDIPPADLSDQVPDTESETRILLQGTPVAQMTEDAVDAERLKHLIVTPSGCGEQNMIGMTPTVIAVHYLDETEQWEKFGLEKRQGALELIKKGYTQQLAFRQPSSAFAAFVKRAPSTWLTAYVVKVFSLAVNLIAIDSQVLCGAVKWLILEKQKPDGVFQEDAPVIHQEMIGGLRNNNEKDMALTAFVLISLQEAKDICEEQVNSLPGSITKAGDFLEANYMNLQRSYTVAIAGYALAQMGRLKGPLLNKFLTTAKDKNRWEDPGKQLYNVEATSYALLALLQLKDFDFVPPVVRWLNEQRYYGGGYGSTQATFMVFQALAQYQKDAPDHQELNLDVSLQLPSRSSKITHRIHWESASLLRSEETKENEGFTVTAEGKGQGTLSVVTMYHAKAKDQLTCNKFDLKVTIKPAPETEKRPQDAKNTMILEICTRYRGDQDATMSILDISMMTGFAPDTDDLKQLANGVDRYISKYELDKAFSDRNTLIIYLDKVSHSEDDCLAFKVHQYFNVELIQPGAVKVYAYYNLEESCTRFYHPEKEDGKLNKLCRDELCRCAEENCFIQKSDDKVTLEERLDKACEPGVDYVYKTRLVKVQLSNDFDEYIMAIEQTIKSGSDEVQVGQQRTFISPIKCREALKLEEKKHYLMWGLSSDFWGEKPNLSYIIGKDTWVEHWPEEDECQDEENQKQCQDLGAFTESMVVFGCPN

B1: AptC3-1 (ssRNA)
RNA: GGGAGAAUUCAACUGCCAUCUAGGCUAGAAGAAUAUGACGGAUUGACCGUAUCAGGGUAGCCGAAGGGAGACAGAAGUACUACAAGCUUCUGGACUCGGU
B1: the Kd with Complement C3b [1], with Complement iC3b [2] and in the data set with Complement C3 [3] was roughly 20 nM throughout.

B2: AptC3-2 (ssRNA)
RNA: GGGAGAAUUCAACUGCCAUCUAGGCAAAUCCGCGAGCGCCGGUACCGGUGGCGCAUGCCCACACAGCACUAAACGAGUACUACAAGCUUCUGGACUCGGU
B2: the binding result with Complement iC3b [4] is listed as “no binding”. The equilibrium dissociation constant (Kd) in the data set with Complement C3b [5] and with Complement C3 [6] was 30 nM throughout.

GGGCUAGAAGAAUAUGACGGAUUGACCGUAUCAGGGUAGCCG (ssRNA) [MiniAptC3-1]: the binding result in the data set with Complement C3b [7], with Complement iC3b [8] and with Complement C3 [9] was “binds” throughout.
